Tests used:
[1] = target: T1, TWEAKR protein (TPP-2305) (Homo sapiens, UniProt Q9NP84); test: Biacore monovalent KD with TWEAKR protein; assay type: binding; details: first order 1:1 binding model
T1 construct: TPP-2305; hTNFRSF12Aaa28-80; Human; 30R-AT080; 168; purchased Fitzgerald Inc 30R-AT080
Experimental: Binding affinities of anti-TWEAKR antibodies were determined by surface plasmon resonance analysis on a Biacore T100 instrument (GE Healthcare Biacore, Inc.). Antibodies were immobilized onto a CM5 sensor chip through an indirect capturing reagent, anti-human IgG(Fc). Reagents from the “Human Antibody Capture Kit” (BR-1008-39, GE Healthcare Biacore, Inc.) were used as described by the manufacturer. Anti-TWEAKR antibodies were injected at a concentration of 10 μg/ml at 10 μl/min for 10 sec.
Sensorgrams were generated after in-line reference cell correction followed by buffer sample subtraction. The dissociation equilibrium constant (KD) was calculated based on the ratio of association (kon) and dissociation rated (koff) constants, obtained by fitting sensorgrams with a first order 1:1 binding model.

[2] = target: T2, TWEAKR-Fc mutein W42A (TPP-1985) (Homo sapiens, UniProt Q9NP84, W42A); test: ELISA mutein binding; details: coating 62 ng/ml; biotinylated IgG from 100 nM; read-out: IC50 of antibody binding, W42A
T2 construct: the full ectodomain (amino acids 28-80) with the following single amino acid substitutions; made in house
Experimental: (§1) Therefore, the full ectodomain (amino acids 28-80) with the following single amino acid substitutions were expressed and purified as Fc fusion proteins: T33Q; S40R; W42A; M50A; R56P; H60K; L65Q.
(§2) To collect dose-response data, the different TWEAKR-Fc muteins were coated with a low concentration (62 ng/ml) in a 384-well Maxisorb ELISA plate and a serial 2fold dilution of biotinylated IgG starting with a concentration of 100 nM was used as soluble binding partner. Detection was done with Streptavidin-HRP and Amplex Red.
(§3) IgGs were biotinylated using an approximately 2-fold molar excess of biotin-LC-NHS (Pierce; Cat. No. 21347) according to manufacturer's instructions and desalted using Zeba desalting columns (Pierce; Cat. No. 89889). The dose-response data were fitted and IC50s determined.

TWEAKR-Fc WT (TPP-599) = target: T3, TWEAKR-Fc WT (TPP-599) (Homo sapiens, UniProt Q9NP84); test: ELISA mutein binding; details: coating 62 ng/ml; biotinylated IgG from 100 nM; read-out: IC50 of antibody binding, WT
T3 construct: TPP-599; HUMAN-TNFRSF12Aaa28-80-hIgG1-Fc; 138; made in house
Experimental: as §1, §2, §3

[3] = target: T4, TWEAKR-Fc mutein S40R (TPP-1987) (Homo sapiens, UniProt Q9NP84, S40R); test: ELISA mutein binding; details: coating 62 ng/ml; biotinylated IgG from 100 nM; read-out: IC50 of antibody binding, S40R
T4 construct: the full ectodomain (amino acids 28-80) with the following single amino acid substitutions; made in house
Experimental: as §1, §2, §3

[4] = target: T5, TWEAKR-Fc mutein L65Q (TPP-1990) (Homo sapiens, UniProt Q9NP84, L65Q); test: ELISA mutein binding; details: coating 62 ng/ml; biotinylated IgG from 100 nM; read-out: IC50 of antibody binding, L65Q
T5 construct: the full ectodomain (amino acids 28-80) with the following single amino acid substitutions; made in house
Experimental: as §1, §2, §3

[5] = target: T6, TWEAKR-Fc mutein T33Q (TPP-1986) (Homo sapiens, UniProt Q9NP84, T33Q); test: ELISA mutein binding; details: coating 62 ng/ml; biotinylated IgG from 100 nM; read-out: IC50 of antibody binding, T33Q
T6 construct: the full ectodomain (amino acids 28-80) with the following single amino acid substitutions; made in house
Experimental: as §1, §2, §3

[6] = target: T7, TWEAKR-Fc mutein R56P (TPP-2683) (Homo sapiens, UniProt Q9NP84, R56P); test: ELISA mutein binding; details: coating 62 ng/ml; biotinylated IgG from 100 nM; read-out: IC50 of antibody binding, R56P
T7 construct: the full ectodomain (amino acids 28-80) with the following single amino acid substitutions; made in house
Experimental: as §1, §2, §3

[7] = target: T8, TWEAKR-Fc mutein H60K (TPP-1989) (Homo sapiens, UniProt Q9NP84, H60K); test: ELISA mutein binding; details: coating 62 ng/ml; biotinylated IgG from 100 nM; read-out: IC50 of antibody binding, H60K
T8 construct: the full ectodomain (amino acids 28-80) with the following single amino acid substitutions; made in house
Experimental: as §1, §2, §3

[8] = target: T9, TWEAKR-Fc mutein M50A (TPP-1988) (Homo sapiens, UniProt Q9NP84, M50A); test: ELISA mutein binding; details: coating 62 ng/ml; biotinylated IgG from 100 nM; read-out: IC50 of antibody binding, M50A
T9 construct: the full ectodomain (amino acids 28-80) with the following single amino acid substitutions; made in house
Experimental: as §1, §2, §3

[9] = target: T10, TWEAKR-Fc fusion protein (TPP-2202), aa 28-80 (Homo sapiens, UniProt Q9NP84); test: ELISA with TWEAKR full ectodomain; assay type: binding; details: coating 1 μg/ml; 0.08 and 0.3 μg/ml biotinylated IgG
T10 construct: the full ectodomain 28-80 including the N- and C-terminus; made in house
Text: (§4) In a first approach to characterize the binding epitope of the aforementioned antibodies, a N- and C-terminal truncation mutant of the TWEAKR ectodomain was generated and tested for its ability to bind to the different anti-TWEAKR antibodies. N-terminally, amino acids 28 to 33 and C-terminally amino acids 69 to 80 were deleted, thus the cysteine rich domain with disulfide bridges between Cys36-Cys49, Cys52-Cys67 and Cys55-Cys64 remains intact (compare FIG. 2). Both constructs, the full ectodomain 28-80 including the N- and C-terminus and the truncated ectodomain 34-68 were expressed and purified as Fc fusion proteins TPP-2202 and TPP-2203, respectively.
(§5) To analyze for binding, 1 μg/ml of the respective dimeric TWEAKR-Fc construct were coated and, 0.3 μg/ml and 0.08 μg/ml of biotinylated IgG were used as soluble binding partner. Detection was done with Streptavidin-HRP and Amplex-Red substrate. IgGs were biotinylated using an approximately 2-fold molar excess of biotin-LC-NHS (Pierce; Cat. No. 21347) according to manufacturer's instructions and desalted using Zeba desalting columns (Pierce; Cat. No. 89889).

[10] = target: T11, TWEAKR(34-68)-Fc fusion protein (TPP-2203) (Homo sapiens, UniProt Q9NP84); test: ELISA with TWEAKR cysteine rich domain; assay type: binding; details: coating 1 μg/ml; 0.08 and 0.3 μg/ml biotinylated IgG
T11 construct: the truncated ectodomain 34-68 were expressed and purified as Fc fusion proteins; made in house
Text: as §4, §5

[11] = target: T12, TWEAKR(28-68)-HIS (TPP-1984) (Homo sapiens, UniProt Q9NP84); test: ELISA with C-terminally truncated TWEAKR ectodomain; assay type: binding; details: coating 1 μg/ml; 0.08 and 0.3 μg/ml biotinylated IgG
T12 construct: Extracellular domain with C-terminal truncation (28-68) fused to HIS6 tag; made in house
Experimental: as §5

B1: P3G5(TPP-2195): reference anti-TWEAKR antibody, murine IgG2a, from WO2009/140177; SEQ ID NO 121/122 (protein)
light: DIVLTQSPASLAVSLGQRATISCRANKSVSTSSYSYMHWYQQKPGQPPKLLIKYASNLESGVPARFSGSGSGTDFILNIHPVEEEDAATYYCQHSRELPFTFGSGTKLEIKRADAAPTVSIFPPSSEQLTSGGASVVCFLNNFYPKDINVKWKIDGSERQNGVLNSWTDQDSKDSTYSMSSTLTLTKDEYERHNSYTCEATHKTSTSPIVKSFNRNEC
heavy: QVQLQQSGPEVVRPGVSVKISCKGSGYTFTDYGIHWVKQSHAKSLEWIGVISTYNGYTNYNQKFKGKATMTVDKSSSTAYMELARLTSEDSAIYYCARAYYGNLYYAMDYWGQGTSVTVSSAKTTAPSVYPLAPVCGDTTGSSVTLGCLVKGYFPEPVTLTWNSGSLSSGVHTFPAVLQSDLYTLSSSVTVTSSTWPSQSITCNVAHPASSTKVDKKIEPRGPTIKPCPPCKCPAPNLLGGPSVFIFPPKIKDVLMISLSPIVTCVVVDVSEDDPDVQISWFVNNVEVHTAQTQTHREDYNSTLRVVSALPIQHQDWMSGKEFKCKVNNKDLPAPIERTISKPKGSVRAPQVYVLPPPEEEMTKKQVTLTCMVTDFMPEDIYVEWTNNGKTELNYKNTEPVLDSDGSYFMYSKLRVEKKNWVERNSYSCSVVHEGLHNHHTTKSFSRTPG
modifications: Mus Musculus
ka [1]: 2.31e+06 M⁻¹ s⁻¹ | kd [1]: 0.00122 s⁻¹ | IC50 [2]: > 50 nM | IC50 (TWEAKR-Fc WT (TPP-599)): 0.001 to 0.15 nM | IC50 [3]: 0.001 to 0.15 nM | IC50 [4]: 0.001 to 0.15 nM | IC50 [5]: 0.001 to 0.15 nM | IC50 [6]: 0.001 to 0.15 nM | IC50 [7]: 0.001 to 0.15 nM | IC50 [8]: 0.001 to 0.15 nM | ELISA binding to full ectodomain (28-80) [9]: saturated binding | ELISA binding to N- and C-terminally truncated construct (34-68) [10]: impaired binding | ELISA binding to C-terminally truncated ectodomain (28-68) [11]: impaired binding

Reference: patent US20160237160A1, “ANTI-TWEAKR ANTIBODIES AND USES THEREOF” (BAYER PHARMA AKTIENGESELLSCHAFT, priority 2013, published 2016)
